In patent US5635601, “Beta-8 integrin subunit antibodies” (Genentech, Inc., dated 1997):

How the values were obtained:
alpha-1 integrin subunit = alpha-1 integrin subunit (human, UniProt P56199); assay: co-immunoprecipitation from surface-labelled beta-8-transfected 293 cells with monoclonal antibody TS2/7
Procedure: (§1) For the immunoprecipitation, four hundred microliters of the labelled cell extract was incubated with 1/100 volume of antibody (ascites, culture supernatant or antiserum) at 4° C. overnight, and immunoprecipitations were carried out using Protein G Sepharose™ 4FF (Pharmacia) after first preclearing with SEPHAROSE™ CL-4B (Pharmacia). Protein G SEPHAROSE™ beads were washed three times with 0.05% Tween 20, 20mM Tris pH 8, 120 mM NaCl, 2 mM CaCl_2. Proteins precipitated from the labelled cell extracts were solubilized by heating in sample buffer and analyzed by separation on a 7.5% SDS-polyacrylamide gel followed by autoradiography.
(§2) These cells endogenously express various alpha integrin subunits, including alpha-v. The beta-8 integrin transfected cell proteins were prepared for immunoprecipitation as described in Example 4.
(§3) Monoclonal antibodies against several different alpha integrin subunits were used in the immunoprecipitations in order to identify with which alpha subunit the beta-8 integrin formed a complex. […]

alpha-5 integrin subunit = alpha-5 integrin subunit (human, UniProt P08648); assay: co-immunoprecipitation from surface-labelled beta-8-transfected 293 cells with monoclonal antibody P1D6
Procedure: as §1, §2, §3

alpha-6 integrin subunit = target: T1, alpha-6 integrin subunit (human, UniProt P23229); assay: co-immunoprecipitation from surface-labelled beta-8-transfected 293 cells with monoclonal antibody GoH3
T1 sequence 1: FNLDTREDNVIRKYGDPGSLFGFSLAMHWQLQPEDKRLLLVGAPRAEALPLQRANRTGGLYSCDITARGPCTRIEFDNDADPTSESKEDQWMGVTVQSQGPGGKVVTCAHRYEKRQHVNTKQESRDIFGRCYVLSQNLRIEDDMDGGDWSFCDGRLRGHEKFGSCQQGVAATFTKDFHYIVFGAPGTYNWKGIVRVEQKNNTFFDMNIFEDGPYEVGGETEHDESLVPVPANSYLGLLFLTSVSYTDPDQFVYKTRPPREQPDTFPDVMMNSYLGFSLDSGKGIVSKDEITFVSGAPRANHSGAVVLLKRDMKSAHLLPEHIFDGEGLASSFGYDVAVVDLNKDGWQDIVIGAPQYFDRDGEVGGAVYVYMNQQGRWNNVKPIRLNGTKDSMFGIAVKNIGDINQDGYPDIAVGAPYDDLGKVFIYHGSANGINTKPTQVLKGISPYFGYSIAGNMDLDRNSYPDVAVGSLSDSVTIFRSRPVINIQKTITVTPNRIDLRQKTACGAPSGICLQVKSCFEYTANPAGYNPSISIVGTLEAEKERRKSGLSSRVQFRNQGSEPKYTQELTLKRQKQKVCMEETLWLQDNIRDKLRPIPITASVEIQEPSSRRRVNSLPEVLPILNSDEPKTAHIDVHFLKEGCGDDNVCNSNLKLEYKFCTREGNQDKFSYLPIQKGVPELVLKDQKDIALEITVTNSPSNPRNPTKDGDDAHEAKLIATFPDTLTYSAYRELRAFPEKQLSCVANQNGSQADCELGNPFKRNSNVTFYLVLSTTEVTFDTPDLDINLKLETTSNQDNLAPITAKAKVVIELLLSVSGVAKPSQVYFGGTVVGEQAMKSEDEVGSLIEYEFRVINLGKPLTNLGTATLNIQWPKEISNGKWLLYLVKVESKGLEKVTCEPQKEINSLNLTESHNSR
T1 sequence 2: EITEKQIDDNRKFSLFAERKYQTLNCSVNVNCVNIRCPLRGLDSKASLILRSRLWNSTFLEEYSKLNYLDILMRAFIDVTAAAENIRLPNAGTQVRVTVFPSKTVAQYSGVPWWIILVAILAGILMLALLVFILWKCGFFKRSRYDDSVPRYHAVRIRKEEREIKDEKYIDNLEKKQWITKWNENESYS
Procedure: as §1, §2, §3

alpha-3 integrin subunit = target: T2, alpha-3 integrin subunit (human, UniProt P26006); assay: co-immunoprecipitation from surface-labelled beta-8-transfected 293 cells with monoclonal antibody P1B5
T2 sequence 1: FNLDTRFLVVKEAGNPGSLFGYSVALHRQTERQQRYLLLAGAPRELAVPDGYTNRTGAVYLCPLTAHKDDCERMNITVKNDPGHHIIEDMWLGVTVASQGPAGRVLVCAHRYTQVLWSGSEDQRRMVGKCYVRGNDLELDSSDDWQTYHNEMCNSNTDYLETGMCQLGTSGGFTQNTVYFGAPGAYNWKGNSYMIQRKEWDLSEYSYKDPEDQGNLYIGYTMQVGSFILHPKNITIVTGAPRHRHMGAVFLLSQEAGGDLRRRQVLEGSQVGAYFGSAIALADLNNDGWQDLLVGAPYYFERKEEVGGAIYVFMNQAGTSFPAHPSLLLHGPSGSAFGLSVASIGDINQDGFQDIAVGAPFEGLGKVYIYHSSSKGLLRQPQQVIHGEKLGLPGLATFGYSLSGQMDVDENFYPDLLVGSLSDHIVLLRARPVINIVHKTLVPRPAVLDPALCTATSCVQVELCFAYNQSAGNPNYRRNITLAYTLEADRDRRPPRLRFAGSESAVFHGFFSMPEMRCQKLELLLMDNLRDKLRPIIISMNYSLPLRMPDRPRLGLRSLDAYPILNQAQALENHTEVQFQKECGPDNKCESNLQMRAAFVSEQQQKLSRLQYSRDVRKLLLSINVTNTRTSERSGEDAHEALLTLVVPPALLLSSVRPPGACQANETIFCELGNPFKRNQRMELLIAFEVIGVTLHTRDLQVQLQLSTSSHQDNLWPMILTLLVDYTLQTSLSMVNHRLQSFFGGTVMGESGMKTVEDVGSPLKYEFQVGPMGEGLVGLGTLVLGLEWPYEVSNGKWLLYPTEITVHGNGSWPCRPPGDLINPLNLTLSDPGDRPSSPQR
T2 sequence 2: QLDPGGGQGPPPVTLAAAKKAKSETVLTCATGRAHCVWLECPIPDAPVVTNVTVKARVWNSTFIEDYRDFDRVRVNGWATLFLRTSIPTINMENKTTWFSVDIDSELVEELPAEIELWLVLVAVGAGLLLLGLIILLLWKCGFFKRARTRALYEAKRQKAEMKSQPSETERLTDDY
Procedure: as §1, §2, §3

alpha-2 integrin subunit = alpha-2 integrin subunit (human, UniProt P17301); assay: co-immunoprecipitation from surface-labelled beta-8-transfected 293 cells with monoclonal antibody P1H5
Procedure: as §1, §2, §3

- binding result (alpha-1 integrin subunit): no binding
- binding result (alpha-5 integrin subunit): no binding
- binding result (alpha-6 integrin subunit): no binding
- binding result (alpha-3 integrin subunit): no binding
- binding result (alpha-2 integrin subunit): no binding
B1: human beta-8 integrin subunit (receptor)
chain: EDNRCASSNAASCARCLALGPECGWCVQEDFISGGSRSERCDIVSNLISKGCSVDSIEYPSVHVIIPTENEINTQVTPGEVSIQLRPGAEANFMLKVHPLKKYPVDLYYLVDVSASMHNNIEKLNSVGNDLSRKMAFFSRDFRLGFGSYVDKTVSPYISIHPERIHNQCSDYNLDCMPPHGYIHVLSLTENITEFEKAVHRQKISGNIDTPEGGFDAMLQAAVCESHIGWRKEAKRLLLVMTDQTSHLALDSKLAGIVVPNDGNCHLKNNVYVKSTTMEHPSLGQLSEKLIDNNINVIFAVQGKQFHWYKDLLPLLPGTIAGEIESKAANLNNLVVEAYQKLISEVKVQVENQVQGIYFNITAICPDGSRKPGMEGCRNVTSNDEVLFNVTVTMKKCDVTGGKNYAIIKPIGFNETAKIHIHRNCSCQCEDNRGPKGKCVDETFLDSKCFQCDENKCHFDEDQFSSESCKSHKDQPVCSGRGVCVCGKCSCHKIKLGKVYGKYCEKDDFSCPYHHGNLCAGHGECEAGRCQCFSGWEGDRCQCPSAAAQHCVNSKGQVCSGRGTCVCGRCECTDPRSIGRFCEHCPTCYTACKENWNCMQCLHPHNLSQAILDQCKTSCALMEQQHYVDQTSECFSSPSYLRIFFIIFIVTFLIGLLKVLIIRQVILQWNSNKIKSSSDYRVSASKKDKLILQSVCTRAVTYRREKPEEIKMDISKLNAHETFRCNF
modifications: surface labelled with 125I (lactoperoxidase)
